# Measurements taken from patent US20090041794A1 (IMMATICS BIOTECHNOLOGIES, published 2009).
# Biological target: T1, HLA-A*0201 molecule on TAP-deficient T2 cells (human)
# T1 construct: also called HLA-A2
# Test: in vitro reconstitution (T2 whole cell-binding) assay on TAP-deficient T2 cells, compared with the Flu reference peptide
row,Binder,binding result
1,"ALCNTDSPL (Synthetic peptide bought from Biosynthan, more than 90% purity; also called RPS-002) [iLR2 146-154 (ALCNTDSPL)]",binds
2,"LLAARAIVAI (Synthetic peptide bought from Biosynthan, more than 90% purity; also called RPS-001) [iLR1 59-68 (LLAARAIVAI)]",binds
